# The RNAGym collection of RNA variant scans (doi:10.7554/elife.80360)
# B1: Hammerhead Ribozyme (parent)
# chain: ACCGGAUGUGCUUUCCGGUCUGAUGAGUCCGUGAGGACGAAACAG
# Variants of: B1
# Experiment: self-cleavage, relative activity (ratio to wild type); higher = more cleavage; co-transcriptional
row,Variant,self-cleavage
1,U13C C43G,0.278
2,U32A A41C,0.347
3,U13C C29A,0.789
4,U7A G45C,0.566
5,C20G G25C,0.503
6,G17U A40U,0.376
7,G22A G39U,0.325
8,C29U A41U,0.337
9,A6U G8A,0.807
10,A6G U14G,1.13
11,G17U G22U,0.359
12,G5A G17A,0.397
13,G25A A37C,0.301
14,C3G C11U,0.314
15,G31A A44C,0.685
16,G33A,1.03
17,G25U G27U,0.31
18,C20G C30U,0.255
19,C30A G35A,0.765
20,U7A A34C,1.78
21,G5A G18A,0.47
22,A1G U9A,1.83
23,A6U G35C,0.473
24,C11G,1.12

row,Variant,self-cleavage
1,G36U A41C,0.309
2,G36U A41G,0.391
3,C2U C11A,1.46
4,G25U G35C,0.259
5,G8U G31A,1.23
6,A40G A42G,0.312
7,G4C C43U,0.298
8,G17U A44U,0.469
9,U28A A34C,0.623
10,A1C U13A,0.557
11,U24G C43A,0.402
12,G22A A44C,0.372
13,U21G G25C,0.361
14,U7G G8A,1.29
15,A6U U7G,0.829
16,A1G A6C,0.838
17,A1U A26G,0.34
18,C3G A42G,0.256
19,A1C G8C,0.432
20,G27U A34G,0.373
21,C38A G45C,0.344
22,C11U A41C,0.337
23,G22U A41G,0.311
24,A26C A44G,0.803

row,Variant,self-cleavage
1,A41C A44U,0.3
2,A1G U24A,1.78
3,G33A G35U,0.866
4,A23U G35C,0.356
5,C29U C30U,0.656
6,G4C G18A,0.303
7,U7C G10A,1.02
8,G25U A34U,0.294
9,C29G G33A,0.788
10,C29G G36U,1.01
11,G33A A42G,0.256
12,U21C G27A,0.597
13,U14A A42G,0.279
14,A1G U19G,0.61
15,G17U G35A,0.642
16,A37U A44C,0.306
17,U24G A44C,0.617
18,G4A G18A,0.372
19,G27A G35U,0.411
20,U24A G25U,0.282
21,U24G G25C,0.294
22,G4A U19C,0.276
23,A1U G25U,0.435
24,A1C C15G,0.43

row,Variant,self-cleavage
1,G22U G36C,0.363
2,A23U A34C,0.345
3,U9C G31U,0.948
4,A1U G36U,0.438
5,G33U C43U,0.598
6,G4C G45A,0.355
7,U13C A26G,0.313
8,A6C A42U,0.295
9,U7A C16G,0.851
10,G4U U14G,0.722
11,C16A U28A,0.434
12,C16G G36C,0.362
13,U9A G35A,0.751
14,G10C A41U,0.358
15,U7A U32A,1.38
16,U12C U14A,0.832
17,A6C C20U,0.371
18,A37C A42C,0.241
19,C3G G31U,0.609
20,A23U A40U,0.371
21,G10A C29U,1.17
22,G4U C38A,0.289
23,A26C,0.7
24,A40U A44G,0.649

row,Variant,self-cleavage
1,U7C A42U,0.312
2,C16A G17A,0.374
3,A6G G27U,0.356
4,A6G C11A,0.965
5,G8U U9G,0.751
6,U32A A40G,0.312
7,G10C G17C,0.614
8,A6C G10U,1.01
9,C11A G25A,0.342
10,U21C G45U,0.553
11,G27A G33U,0.976
12,U19A U21C,0.248
13,G17U C43A,0.356
14,U12G G22A,0.338
15,G31A G33A,0.887
16,G5A G36C,0.384
17,U12G A41G,0.339
18,A1G C20G,0.358
19,G17C G27C,0.354
20,U7G G17C,0.552
21,G8C U12G,1.43
22,C15G U19C,0.232
23,U9G C15A,0.758
24,G17U C20U,0.501

row,Variant,self-cleavage
1,A23G A44U,0.339
2,G10C C15G,0.524
3,U7C G35C,0.849
4,A23C C38A,0.327
5,G35U C38U,0.775
6,A23U G25U,0.315
7,A6C A44C,0.391
8,U14G G27A,0.757
9,C38U G45U,0.593
10,U12C C29U,0.912
11,G5U A41G,0.316
12,U13C G31U,1.22
13,C15A G17U,0.374
14,A23U A44G,0.706
15,U19G C29U,0.316
16,U13A G39A,0.317
17,U13C G39A,0.293
18,G10U U19A,0.347
19,C16A C43A,0.304
20,G8A G22A,0.403
21,C30G U32C,0.581
22,G33A G45C,0.873
23,U32C A34U,0.738
24,U32G C43G,0.303

row,Variant,self-cleavage
1,C16U G27C,0.783
2,G22C A23G,0.312
3,C38G A44C,0.508
4,A42G A44C,0.484
5,C2U U14C,0.474
6,A1U U28A,0.3
7,G31C A34C,1
8,G31C A34G,0.994
9,U14A C20U,0.398
10,G8A U19C,0.489
11,A1G A44U,0.968
12,C2A G5C,0.288
13,A37U G45U,0.48
14,A26C U32C,0.803
15,A1U G8C,0.599
16,U7A G35A,0.687
17,G39U C43G,0.298
18,A1C U12A,0.471
19,A26C G36C,0.277
20,A6C U32G,0.477
21,C29A U32G,0.504
22,G8U C16A,0.908
23,G8U C16G,0.731
